Test results published in paper doi:10.1101/2023.08.31.555674, “New structural features of the APC/C from high-resolution cryo-EM structures of apo-APC/C and APC/C^CDH1:EMI1 complexes” (bioRxiv, 2023).

How the values were obtained:
[1] = biological target: T1, APC1 subunit of the anaphase-promoting complex/cyclosome (human, UniProt Q9H1A4 1-1944); test: cryo-EM structure; APC/C^CDH1:EMI1 ternary complex, 2.9 Å; complex and grids prepared as described previously [19]; Titan Krios, Falcon 3; APC/C subunits co-expressed, complex purified; details: both partners purified
T1 construct: APC1, human, subunit of recombinant APC/C; Stood assembled in the unphosphorylated recombinant APC/C; source: recombinant human APC/C, modified MultiBac system, as described previously [51,52]; purified within the APC/C

[2] = biological target: T2, APC8 subunit of the anaphase-promoting complex/cyclosome (human, UniProt Q9UJX2 1-597); test: as above; details: both partners purified
T2 construct: APC8, human, subunit of recombinant APC/C; Stood assembled in the recombinant APC/C; the contacts are told of the copy APC8(B); also called APC8(B); source: recombinant human APC/C, modified MultiBac system, as described previously [51,52]; purified within the APC/C

binding result [1]: binds
binding result [2]: binds
B1: CDH1 (APC/C coactivator subunit) (natural protein, human, UniProt Q9UM11-2 1-493, looked up)
chain: MDQDYERRLLRQIVIQNENTMPRVTEMRRTLTPASSPVSSPSKHGDRFIPSRAGANWSVNFHRINENEKSPSQNRKAKDATSDNGKDGLAYSALLKNELLGAGIEKVQDPQTEDRRLQPSTPEKKGLFTYSLSTKRSSPDDGNDVSPYSLSPVSNKSQKLLRSPRKPTRKISKIPFKVLDAPELQDDFYLNLVDWSSLNVLSVGLGTCVYLWSACTSQVTRLCDLSVEGDSVTSVGWSERGNLVAVGTHKGFVQIWDAAAGKKLSMLEGHTARVGALAWNAEQLSSGSRDRMILQRDIRTPPLQSERRLQGHRQEVCGLKWSTDHQLLASGGNDNKLLVWNHSSLSPVQQYTEHLAAVKAIAWSPHQHGLLASGGGTADRCIRFWNTLTGQPLQCIDTGSQVCNLAWSKHANELVSTHGYSQNQILVWKYPSLTQVAKLTGHSYRVLYLAMSPDGEAIVTGAGDETLRFWNVFSKTRSTKESVSVLNLFTRIR
notes: CDH1, human; the last residue printed for CDH1 is 493 (chimera: residues 24 to 493 of CDH1), so the isoform of 493 residues is meant; the tag is told in the methods for CDH1 in general; source: expressed and purified as described previously [19,23,27]
